Results as given in the DeepSol protein solubility set.

Assay: soluble on expression in E. coli; label from the status in PepcDB or PDB records

Sequence | soluble on expression in E. coli
MFSVFEWILIFFGILNWFKFTQPSTPEPASRFFTRVCQQLRETVLIEIDSSGRVQPFVSIVEEGSKPYFSPHVGCAECMQWWDVYGEQPHRVEETEDQDTDEGVEEESEIEDSDFDDQITFVKPTTPAPLSPETENFIEDKMKFHFQATDIINEYLGKGTDMGIVSNLIRISQTYGVQLKQVSSGKSSMKEIEGILKSLQKEFEQEIEGLNGEISEAEENNESDIDESFEFVENLELDSDFE | not soluble
MFTIKKATTNDIQLINEMAQIVFPATYREILSKEQLDYMMDWMYSPKNLRKQMEEEGHIYYIAYKDGEAAGYVSIQPEGEHLFHLQKIYVLPLFQGCRLGKALFEQAVKAIKEIHPGPCEMHLNVNRNNKALQFYQHLGMEKVAEGDFHIGNGYYMNDYIMGLKI | not soluble
MFVDRIVLSFRGAGLERANTCLRKGQRLRKACSHVFRPLCSSDLPVNLPTDLETKRVMKPPLAERESIWSYPRPPRVEPNTRHLRVVHNQVTIAETRRGYRVLEYSHPPSYYIPLDDIDLQYVMVSSKVRSTFCEFKGEATYYDVEVGWEVSEGAAWSYDFPTRAYRMLKDHIAFYPAKVDACWVDEYRVRPEPRSFYGGWVTPLVKGVYPEEDVEDDEDSSGGDGKDSATQ | soluble
MFVTQQLKLMGTVIDIQIESDKACQQLSRVIDLLYTYKNRFSANDSNSELMAINQAAGVKPVSVHSDLFNLIQIGKAHSLSTPSNLNIAIGPLVQAWRIGFEDARVPSHNLISQQLALTDPRQVLIDDKKQTVFLQQVGMALDLGALAKGYITDKIMAYLIEDGIDSALINLGGNVRVHGPNPKSPDKTFRIGIQKPDAKRGQHLGVIKVNNHSVVTSGIYERQFTSKGKQYHHILDRQTGYPIETDMLSLTIMAPSSFYCDIWTTRLFGLDSSMIITLLNTFDNIEGLLVTRKHHVLMSNGLRHYFQPYYH | not soluble
MFVVAVANTKGGCGKTTLATHLAASFACRGYATGLADLDRQKSALGWLKRRPEGAAPIQGINLAREEDIPEGIERLVVDAAAAMDKDVVKDIVRRADLVVVPVLPGVFDEDGTARFVGHLESLKSIRKNRRDVAFVANRVRLNTRALTRLGGFLEELSFPVIARLRDTQHYTAAAAEGLSLFDLPGGRAADYRAEWTPLLDFIEIRVRG | soluble
MGDDEARSWIRGDETAKQMLSRVLKDRAFLLIPPLHRVPLRAGNVVEITGASTSAKTQILIQAAISCILPKTWNGIHYGGLGKLVLFLDLDCRFDVLRLSQMLKHRLLQANWLGNGAWWQLEESNVKSCKSAEEKTKTVFDEELYASCMKRFLYVRCYDSLELLSSLKTLHYRIQQQEACGSQVGVLMIDSIGAFHWTDRLSSSLALETHNRKSLSLTNVVETIVQELKKLLLVHSLVVLATKGTIYEEKYPANENNRKVSSNDHFSGNVASKAQQPPFREFMPSSWQAFVTHKIIIRKSADYQSLQTGQQNLLAYSLEWLQPQLSRIDRFIVDDVRKLTTIKPFYSKLLLIYIVIPASSSHAVWYCHCLVT | soluble
MGDIEDAPRIISGIGELDRATGGGFVRGSALLVGGDPGIGKSTLLTQAAAALASRGHRIVYVSGEEAVAQIRLRAQRLGVADSPVELAAETNVEDILATIADGKRPDLVILDSIQTLWTDLADSAPGTVTQVRAAAQAMIRYAKSTGAAIVLVGHVTKEGQIAGPRVVEHMVDGVLYFEGEGGHHYRILRTVKNRFGLEHHHHHH | not soluble
MGDTTFLIEFDHPAAVYSPGQNVAGKLTIRNRNALNALALKICIHGDIETLWRKFENKGRYDRHGRWYRSSEHINYTSKINVLEGIAQPWSSIENANNKIPGGVNIFPFLFQLPANLPPSFEGTHGNVRYSVHVELDRPWRMNVEAKRVFSVIPVIDLNSIPKTINPMIVSSCKHSGLFSNKEVKVKISIPKSGYIPGETIQVSALIQNHTKKPIYSIKAKLEQHVHYQAQQENSHLFPEEHCHKHCEHKTAQTTMSKVEKSCHVEFCSNSQINVPLVLPNQLVPSFRTGIIEVDYCIIVDIGENKKLRCELPITVGTIPIGVFTRPIAYSITEAPPKYENFSQIVEDSQASAPPPEYENEEHF | not soluble
MGEAAYVTVSALTKYIKRKFDVDPHLENIWIKGELSNVKIHTRGHIYFTLKERKGRMQSVMFARQSERLPFKPENGMKVLVRGGISVYEPSGNYQLYAKEMQPDGVGALYLAYEELKKKLAGEGLFDDRYKKQIPAFPATIGVVTSPTGAAVRDVITTLKRRYPLVKVIVLPALVQGENASRSIVTRIEEANEKEICDVLIVGRGGGSIEELWAFNEEIVARAIFASNIPIISAVGHETDFTISDFVADIRAATPTGAAEIAVPHTTDLIERTKTAEVRMTRAMQQHLGQEKGRIQTLQSSYAFRFPKRLYAQKEQQFDLAYQQFQAQLTALLDRKSRQLERETYRLEALHPHEQLKQARTRYQEQTNQLRKNMNIQMKQLHSQFQTVLGKLNALSPLQVMERGYSLAYKEDKLIKSVSQIEEQDRLEIKLKDGVLTCEVLEKRGEEK | not soluble
MGEIADSLAGLTISVVSPDNQLAATVRRRREVTVHFRPGSYERYDARTLETQLSQLFTLVMSGYRQGYMSVMEAHDMTVMADASDVDTEAGRIVRRRRDETVALGESAQGMVRAKTRGLSEWRFKIADGALSRLSEEQFTAEIHGAFMNVMADWSRRVRRIHWEVFSPDRVPAAGR | not soluble
MGENITTRGVDLLGLPTGTRLRLGESALVELTGLRNPCSQLDNYQPGLTAAVLGRDEQGNLIRKAGVMAIVLEDGEVRPGDAIDIQLPPLPHRALEKV | not soluble
MGFEDLVEVTTMIADLTTDQREALLLTQLLGLSYADAAAVCGCPVGTIRSRVARARDALLADAEPDDLTG | soluble
MGFGFRHILTEREFTRSFAIQRKLKVIAEEIKADVIITHDTGCTTTFEKNQWIGKAHGMYYPVAVMSDVMFSALACGAHPFKVVQLYWNCSNYEPLLEKMGITNWRELKKEWEDTVKYIAELEKQGKYDELLEFFKEYDLYEPYSKTSDGFKLRKSATADLPLFKS | not soluble
MGFKRLLASLGAGGASVETVLTEVNVVPGGVVQGEVRIQGGSVNQAIEGLSVGLQAKVEVEGHDDQEYKQDIEFAKLSLGGAFELQAGAVHAVPFGLEIPWETPITMIDGQALRGMNIGVTTELEIARAVDSGDLDPVNVHPLPAQKAILDAFVQLGFRFKNADMERGHIRGTRQRLPFYQEIEFFPPSQYRGLNQVELSFVADDREMDVILEMDKKPGLFSEGSDSYRSFQVGLNDFQGTDWTAYLHQWLSEVGSKRSWF | not soluble
MGFLKGKKGLIVGVANNKSIAYGIAQSCFNQGATLAFTYLNESLEKRVRPIAQELNSPYVYELDVSKEEHFKSLYNSVKKDLGSLDFIVHSVAFAPKEALEGSLLETSKSAFNTAMEISVYSLIELTNTLKPLLNNGASVLTLSYLGSTKYMAHYNVMGLAKAALESAVRYLAVDLGKHHIRVNALSAGPIRTLASSGIADFRMILKWNEINAPLRKNVSLEEVGNAGMYLLSSLSSGVSGEVHFVDAGYHVMGMGAVEEKDNKATLLWDLHKEQ | soluble
MGGEQRETNLSIRGKAYIVGAFEHPLRYAPAHSVAQLHAECALGALADAGLTLADVDGYFCAGDAGASPATLVDHMNLRLRHVDGTEIGGGSYLALIGHAAQAIASGKCRVALITLAGKPRSAGQATGTEARQPGPDRPASAWEAPYRWTVAGIYGNFARRHMHEYGTTSEQLAWVKVAASHHAQHNEHALLRKVYSVEDVLASPMIADPLHRLDCCVITDGGGALVLAAPEVARSLARPRIRVLGCGETIRTNNGGHHADMLHTGAQRSGPAAFAEAGVTPADIKYASVYDNFTIMVIMQLEDLGFCEKGAGGRFVADGNLISGTGRLPWNTDGGGLCNNHPANRGGITKAIEAVRQLRGEAHPSVQVPNCDLALAAGPGLVFGVGHSHATVILERE | not soluble
MGGGGEDEYESLPTHSVPVHLTAGALAGAVEHCVMFPFDSVKTRMQSLCPCPETKCPTPVHSLMSIVKREGWLRPLRGVNAVAAGSMPAHALYFTVYEKMKGYLTGNSAGHSNTLAYGASGVVATLIHDAIMNPAEVVKQRMQMAFSPYGSSLECARCVYNREGVAAFYRSYTTQLAMNVPFQAIHFMSYEFWQHVLNPEHKYDPKSHLIAGGLAGGLAAALTTPMDCVKTVLNTQQAAEADPANRRIFLQARYRYRGISDAVRTIYSQRGLSGFSCGLQARVIFQVPATALSWSVYELFKFMLSFEGGHSS | not soluble
MGGIYRLSLKSTEATAERLSCDTRCNYEDRDLAYSPDGRWLAIARRFSNISEDIFIRDLASAHEKRLTQGLEDIRGLSWTPDSQALVFATEDSGSSNGFTLDINTAQIRSLDVEGMSYPSSVSAEGELVYHQYHRQFQMAYFSLGDKVPGSLFPLLYSGVSHRNPDYSPEAKRIVFVSSETGYNEIWTSDINGQKLEQLTQLKSRVAYPRWSPDGSRIAFIAPDDRNEGNRIFILDLTNKNITALASSYHNHGRPSWNWQGTAVLASTADGITEFYLDNRAPRVISSLSMAVGFAKSATELVFSRDGENGLWQINLTQPEHVEQLISTDAFRAGNNWVLTASGVYFKSSNGHEQLLNYWEASSQQVTSLLRVPRSSLSGFGSMTYIPEANRLVMTLDGFPQRDIILLKHKLLKLEHHHHHH | soluble
MGGSHHHHHHGMASALRTDKKSEFLKALKRDRVEEEHEDESRAGSEKDDDSFNLHNSNSTHQERDINRNFDENEIPQENGNASVISQQIIRSSTFPQTDVLSSSLEAEHRLLKEMGWQEDSENDETCAPLTEDEMREFQVISEQLQKNGLRKNGILKNGLICDFKFGPWKNSTFKPTTENDDTETSSSDTSDDDDV | not soluble
MGGSHHHHHHGMASAVNVYSTSVTSDNLSRHDMLAWINESLQLNLTKIEQLCSGAAYCQFMDMLFPGSIALKKVKFQAKLEHEYIQNFKILQAGFKRMGVDKIIPVDKLVKGKFQDNFEFVQWFKKFFDANYDGKDYDPVAARQGQETAVAPSLVAPALNKPKKPLTSSSAAPQRPISTQRTAAAPKAGPGVVRKNPGVGNGDDEAAELMQQVNVLKLTVEDLEKERDFYFGKLRNIELICQENEGENDPVLQRIVDILYATDEGFVIPDEGGPQEEQEEY | not soluble
MGGSHHHHHHGMASLAPGSSRVELFKRKNSTVPFEESNGTIRERVVHSFRIPTIVNVDGVMVAIADARYETSFDNSFIETAVKYSVDDGATWNTQIAIKNSRASSVSRVMDATVIVKGNKLYILVGSFNKTRNSWTQHRDGSDWEPLLVVGEVTKSAANGKTTATISWGKPVSLKPLFPAEFDGILTKEFIGGVGAAIVASNGNLVYPVQIADMGGRVFTKIMYSEDDGNTWKFAEGRSKFGCSEPAVLEWEGKLIINNRVDGNRRLVYESSDMGKTWVEALGTLSHVWTNSPTSNQQDCQSSFVAVTIEGKRVMLFTHPLNLKGRWMRDRLHLWMTDNQRIFDVGQISIGDENSGYSSVLYKDDKLYSLHEINTNDVYSLVFVRLIGELQLMKSVVRTWKEEDNHLASICTPVVPATPPSKGGCGAAVPTAGLVGFLSHSANGSVWEDVYRCVDANVANAERVPNGLKFNGVGGGAVWPVARQGQTRRYQFANYRFTLVATVTIDELPKGTSPLLGAGLEGPGDAKLLGLSYDKNRQWRPLYGAAPASPTGSWELHKKYHVVLTMADRQGSVYVDGQPLAGSGNTVVRGATLPDISHFYIGGPRSKGAPTDSRVTVTNVVLYNRRLNSSEIRTLFLSQDMIGTDGGAGTAA | soluble
MGGWSNFKFLFLSPGGELYGVLNDKIYKGTPPTHDNDNWLGRAKKIGDGGWNQFQFLFFDPNGYLYAVSKDKLYKAPPPQSDTDNWIARATEIGSGG | soluble
